experiment: soluble on expression in E. coli; label from the status in PepcDB or PDB records

Sequence | soluble on expression in E. coli
MSHFFADHDAPLSMLSVKTEYFPQLTDKEQKYAHFMSKASHAGSRVVMRQVSHESEPIFDLILAIHSKLNGKYPEDDITQKQQTGLYLEYVSQFLSNLGNFKSFGDTKFIPRCEVKFFKQLLELAKINPSSSPLTLSPVDVNHEFTSHHLFSTINELIDIGIYHVEEKAALLGFPSQGYTSAYYLGLPVTPEDMALLKEQLFAELAILPENTRINKVGENSFQIWVASENVKNQITETYPSGQITLSNAVTKVEFIFGDHSREMRLVASYLKEAQKFAANDTQKAMLQEYINHFVTGSSQAHKEAQKLWVKDISPVIETNIGFIETYREPSGIIGEFESLVAIQNKERTAKFSSLVNNAEEFISLLPWSKDYEKPIFNPPDFTSLEVLTFTGSGIPAGINIPNYDDVRLKIGFKNVSLGNILSAAAKSSSKHPPSFISQEDRPIFEKYQSDSFEVQVDIHELLGHGSGKLLTEFTDGFNFDKENPPLGLDGKPVSTYYKVGETWGSKFGQLAGPFEECRAEVIAMFLLTNKKILDIFGFHDVESQDKVIYAGYLQMARAGLLALEYWNPKTGKWGQPHMQARFSIMKTFMKHSTDKNFLKLEMNSTNDDFAIKLDKSLIKTAGHECVKDYLKHLHVYKCSGDVEQGSKYFIDRSTVTPDLASLRDIVLSKRLPRRQFIQSNSYIDDNNKVTLKEYDETPQGMLQSFLDREL | soluble
MSHHHAPVDFEKEASILRNHFNNAEIDLLLLIKKHVMYGAKNPTKWKFIQQSRLIRFKRELKAHISLFKDETRNKIDKLTYRVYLDCVNEYEDEMEARYQTKKEVDIQNDDYLSESDALIQISEDMANYWQKIAPSKYKQVVKETKDSNGVLKYAIATSLINVLGDGIRNVIDQSGRKYRPGAYMEMASRGAFFNVGLNAMKRVLGRYEHELVQVSAHVRSCPRCAPWQGEVLSVNYESNEYKTLQEAENDGLFHPNCHHFLYSYFEGDETDEPIPYDEEEYEAQSKQRYYERGIRDWKTKDILAEGPSKQYTAGKVKQWEEALQEHLNNN | not soluble
MSHLDNGFRSLTLQRFPATDDVNPLQAWEAADEYLLQQLDDTEIRGPVLILNDAFGALSCALAEHKPYSIGDSYISELATRENLRLNGIDESSVKFLDSTADYPQQPGVVLIKVPKTLALLEQQLRALRKVVTPDTRIIAGAKARDIHTSTLELFEKVLGPTTTTLAWKKARLINCTFNEPPLADAPQTVSWKLEGTDWTIHNHANVFSRTGLDIGARFFMQHLPENLEGEIVDLGCGNGVIGLTLLDKNPQAKVVFVDESPMAVASSRLNVETNMPEALDRCEFMINNALSGVEPFRFNAVLCNPPFHQQHALTDNVAWEMFHHARRCLKINGELYIVANRHLDYFHKLKKIFGNCTTIATNNKFVVLKAVKLGRRR | soluble
MSHTVAGGGSGDHSHQVRVKAYYRGDIMITHFEPSISFEGLCNEVRDMCSFDNEQLFTMKWIDEEGDPCTVSSQLELEEAFRLYELNKDSELLIHVFPCVPERPGMPCPGEDKSIYRRGARRWRKLYCANGHTFQAKRFNRRAHCAICTDRIWGLGRQGYKCINCKLLVHKKCHKLVTIECGRHSLPQEPVMPMDQSSMHSDHAQTVIPYNPSSHESLDQVGEEKEAMNTRESGKASSSLGLQDFDLLRVIGRGSYAKVLLVRLKKTDRIYAMKVVKKELVNDDEDIDWVQTEKHVFEQASNHPFLVGLHSCFQTESRLFFVIEYVNGGDLMFHMQRQRKLPEEHARFYSAEISLALNYLHERGIIYRDLKLDNVLLDSEGHIKLTDYGMCKEGLRPGDTTSTFCGTPNYIAPEILRGEDYGFSVDWWALGVLMFEMMAGRSPFDIVGSSDNPDQNTEDYLFQVILEKQIRIPRSMSVKAASVLKSFLNKDPKERLGCLPQTGFADIQGHPFFRNVDWDMMEQKQVVPPFKPNISGEFGLDNFDSQFTNERVQLTPDDDDIVRKIDQSEFEGFEYINPLLMSAEECV | not soluble
MSIESLNAFSMDFFSLKGKTAIVTGGNSGLGQAFAMALAKAGANIFIPSFVKDNGETKEMIEKQGVEVDFMQVGITAEGAPQKIIAACERFGTVDILVNNAGICKLNKVLDFGRADWDPMIDVNLTAAFELSYEAAKIMIPQKSGKIINICSLFSYLGGQWSPAYSATKHALAGFTKAYCDELGQYNIQVNGIAPGYYATDITLATRSNPETNQRVLDHIPANRWGDTQDLMGAAVFLASPASNYVNGHLLVVDGGYLVR | soluble
MSIHICQPVSPKENPNGILNNSRPTTALSGLPELHTVGQGADLEIWTKDSHALLFLLKGEPAVFVGPESGNSQLSGDNVVLLAANLRIRLRAEKGPATLICFYFHPTLHLCLGICPSSGNKKECRRRTEIVHISSLQRETMVNSWLHSVMGYLSEMPTSSEIFELKLRELFCIFRSRYEKPLLDNFLSSFHCQNKGFRAFVFRHHLECRSAEELAAKMNLSLSSFKRHFNQEFSCPPLKWMHEERAKHVYTDLADPSLSLKAIAEKNLFSSVSYLCAFCRKMLGNTPLQLRKAMGQQPK | not soluble
MSIPINFNNLKYLLNDMRNKNRIIEAFPFNYNQRQYAVILTRYKPDEPRPDDYAQAKLEFFNLNSENSIFAYADFYEVHFKSATDFINFFKINVQAGAAKIREIFQSFSNLFADFIPTQTKKDLDIIYKKIVATRLEPNSPNTIYCYDVRRNGKDKAGKPNRRSVENSEKAKILRPELYEKFKADSNYSFFFSDNPSDEKTDAEIIREVTNRQ | not soluble
MSIQHFRVALIPFFAAFCLPVFAHPETLVKVKDAEDQLGARVGYIELDLNSGKILESFRPEERFPMMSTFKVLLCGAVLSRIDAGQEQLGRRIHYSQNDLVEYSPVTEKHLTDGMTVRELCSAAITMSDNTAANLLLTTIGGPKELTAFLHNMGDHVTRLDRWEPELNEAIPNDERDTTMPVAMATTLRKLLTGELLTLASRQQLIDWMEADKVAGPLLRSALPAGWFIADKSGAGERGSRGIIAALGPDGKPSRIVVIYTTGSQATMDERNRQIAEIGASLIKHW | soluble
MSISWSMSRNMFKLAHISDVHLGPLPRLSIQELFSKRITGFVNWHRNRRKHLFASTLDLLLDDIRTHRADHLAVTGDLVNLASGIEIRAAAAWLRALGDPADTSVVPGNHDAYVPGAYEKSMRAWYDYVRGDLAPPQWQEDRRIFPYLRVRDKVAIVGCSTAVATPPFAASGFFSARQARDTVNMLRAAGEAGLFRVVMIHHPPIRGATAFHKRMIGIRRFAAVISTGGAELVLHGHTHLNTLHWLRGQVQPVPVVGIASASQGPGSIKPPAAYNLFSIDGAPGAWELTGERFSLNRTGDAMMPESVDIFAPLEHHHHHH | not soluble
MSITYSAISFSGFSPKSVPFAIHSVTRRQFLNPNTFYRFGFSPSLQGSSIEFSLQLNSRVVLSKERRSLPLVVRNDRPQNEDLPKQYTRREKKPFPVPIVDLRRAARERVKNNKDKPKRPLPPPKNGMVVKSLVPLAYKVYNARIRLINNLHRLMKVVRVNACGWCNEIHVGPYGHPFKSCKGPNTSQRKGLHEWTNSVIEDVIVPLEAYHLFDRLGKRIRHDERFSIPRVPAVVELCIQGGVEIPEFPAKRRRKPIIRIGKSEFVDADETELPDPEPQPPPVPLLTELPVSEITPPSSEEETVSLAEETLQAWEEMRAGAKKLMRMYRVRVCGYCPEVHVGPTGHKAQNCGAFKHQQRNGQHGWQSAVLDDLIPPRYVWHVPDVNGPPMQRELRSFYGQAPAVVEICAQAGAVVPEHYRATMRLEVGIPSSVKEAEMVV | soluble
MSKADENDANLTENGVHKSRSDSEINSHTSSIHKSSSQHRRLFIDDISTIEASAGDRVWATCSGAGDATELITIHFLGDQFEESAIDVVRKHSLVMFTVPSLKVDSELEVELRFSTSNDNVTTISFKYLPRKIQRSHTQEISLFDNLLEFATNGDTISLLQPFVAQISKQDIEGNTVFHVAAKNGQSFSLKLLLSVIPPDIKNEVINVQNTHGLTALHVAIRTGDPDAVHYLMNHGAKIDISDNHGSTALHYLGDAYNESIFKEILEPSRGQRFDVNQLNSEGFAPIHVAVRRLKLSLIEMLIEAGALIDFLDTEKKRNALMHAIEMNDFETIQLLVERGSGTNIEDESGETALSLAVKNVNYPVIGLLLDNGADPNRQNSKGICLADSEDSVIQNIINGDRPELPKKEAFGVPNDLAISRSPLFGRSHPDQAPGEESGRHRVVKRSREEILNDAQTLLAETDSMAPRVSRISTSESEDEQQPGPSTSSGTRRRRSEWDRNPKLSDSVCNLDYLTRIRVAKIFDDQCKWQRLAQQLNCDHMVELISICSSGDDSSPTMILLDQFEQLEDSSISRLRDAMNQMAEDDAVKLIDSRYVY | not soluble
MSKDLVHPSLIRAGIVELEMAEETTDLINRTIESNQAHLQGEPLYVDSLPEDMSRLRIEDKSRRTKTEEEERDEGSSEEDNYLSEGQDPLIPFQNFLDEIGARAVKRLKTGEGFFRVWSALSDDIKGYVSTNIMTSGERDTKSIQIQTEPTASVSSGNESRHDSESMHDPNDKKDHTPDHDVVPDIESSTDKGEIRDIEGEVAHQVAESFSKKYKFPSRSSGIFLWNFEQLKMNLDDIVKAAMNVPGVERIAEKGGKLPLRCILGFVALDSSKRFRLLADNDKVARLIQEDINSYMARLEEAE | soluble
MSKIDFHTHYLPTSYVEALKRHVPGDPDGWPTPEWTPQLTLNFMRDNDISYSILSLSSPHVNFGDKAETIRLVEAANDDGKSLAQQYPDQLGYLASLPIPYELDAVKTVQQALDQDGALGVTVPTNSRGLYFGSPVLERVYQELDARQAIVALHPNEPAILPKNVDIDLPVPLLGFFMDTTMTFINMLKYHFFEKYPNIKVIIPHAGAFLGIVDDEIAQYAQKVYQVDVYDVMHHVYFDVAGAVLPRQLPTLMSLAQPEHLLYGSDIPYTPLDGSRQLGHALATTDLLTNEQKQAIFYDNAHRLLTELEHHHHHH | not soluble
MSKIFEDNSLTIGHTPLVRLNRIGNGRILAKVESRNPSFSVKCRIGANMIWDAEKRGVLKPGVELVEPTSGNTGIALAYVAAARGYKLTLTMPETMSIERRKLLKALGANLVLTEGAKGMKGAIQKAEEIVASNPEKYLLLQQFSNPANPEIHEKTTGPEIWEDTDGQVDVFIAGVGTGGTLTGVSRYIKGTKGKTDLISVAVEPTDSPVIAQALAGEEIKPGPHKIQGIGAGFIPANLDLKLVDKVIGITNEEAISTARRLMEEEGILAGISSGAAVAAALKLQEDESFTNKNIVVILPSSGERYLSTALFADLFTEKELQQ | soluble
MSKIRVHEYAKKHNISSKDLMTKLKEMNIEVSNHMTMLDDEVVNKLDNEYQAEKPSVADEFEVEEKVVRSKKNSNKKKKKGKGNEDKRQENFAGRQQTQTVETPDKITFSGSLTVGDLAKKLSKEPSEIIKKLFMLGIMATINQDLDKDTIELIANDYGIEVEEEVIVSETEFETFIDEQDDEENLKERPAVVTIMGHVDHGKTTLLDSIRNSKVTAGEAGGITQHIGAYQVELNDKKITFLDTPGHAAFTTMRARGAQVTDITIIVVAADDGVMPQTVEAINHAKAAGVPIIVAVNKMDKPAANPDRVMQELTEYELVPEAWGGDTIFVPISAIQGEGIDNLLEMILLISEVEEYKANPNRYATGTVIEAQLDKGKGTIATLLVQNGTLRVGDPIVVGTSFGRVRAMVSDIGRRVKVAGPSTPVEITGLNEVPQAGDRFMAFADEKKARQIGESRAQEALLAQRGEKSKLSLEDLFQQIQEGDVKEINLIVKADVQGSVEAMAASLRKIDVEGVKVKIIHTGVGAITESDIILASASNAIVIGFNVRPDVNAKRTAELENVDIRLHRIIYKVIEEIEAAMQGMLDPEFEEKVIGQAEVRQTFKVTKVGTIAGCYVTDGKITRDSGVRIIRDGVVIFEGQLDTLKRFKDDVKEVAQNYECGITIERYNDLKEGDIIEAYIMEEVKR | not soluble

— the DeepSol protein solubility set
